In patent publication US9642874B2, “Compositions of selenoorganic compounds and methods of use thereof” (Alltech, Inc., priority 2014, dated 2017):

System: primary mouse hepatocytes
Assay: Toxicological study: LDH level in culture media of primary mouse hepatocytes
Assay type: cell-based
Details: Compounds CDE (150, 300 ppb), insulin (10, 100 nM) or both; 24 hours serum-containing + 6 hours
Procedure: The overnight-acclimated hepatocytes were washed twice with PBS (to remove any residual FBS and other additives in the TRL hepatocyte maintenance medium, pretreated with control (water) or selenium Compounds CDE (150 or 300 ppb of each selenium compound) in DMEM/F12 media supplemented with 10% fetal bovine serum (FBS) for 24 hr. These cells were then washed twice with PBS and incubated with the same dose of selenium Compounds CDE (150 or 300 ppb) in the presence or absence of insulin (10 or 100 nM, Sigma), 0.1 mM 8-CPT (Sigma) or 0.5 μM Dex (Sigma) in serum-free and glucose-free DMEM media (Invitrogen) supplemented with 20 mM lactose (Sigma) and 2 mM pyruvate (Sigma) and 15 mM HEPES (Sigma) for another 6 hours. […]
Similar to the above glucose assay, cell culture media from the above described treatments were collected and centrifuged at 300×g for 5 minutes to remove any potential dislodged hepatocytes and subjected to LDH analysis using a […] (Abcam) according to the manufacturer protocol. In brief, the absorbance at OD450 nm in LDH standards and the culture medium samples after incubation with LDH substrates for every two minutes up to 40 minutes were determined by the Bio-Tek microplate reader. […]

With “insulin: insulin (10 or 100 nM, Sigma) used as comparator and cotreatment” the “LDH levels in the media” value was “did not cause a significant increase of LDH levels”.
